Where a chain is given by its changes, count along the chain named. Like-named read-outs stand apart in the source and are kept apart here.
B1: Nb6 (VHH)
VHH: QLQLVETGGGLVQAGGSLRLSCAASGLIFSSYNMGWFRQAPGKEREFVGAIWSSSFTYLLDSVKGRFTISRDNAKNTVYLQMNSLKPEDTAVYYCAASRRLLTQGSAVSTTSYEYWGQGTQVTVSS
B2: Nb10 (VHH)
VHH: QVQLVESGGGLVQTGGSLRLSCAASGLTFSSYNMGWFRQAPGKEREFLGAIWSSGFTYYLDSVKGRFTISRDNAKNTVYLQMDSLKPEDTAVYYCAAARRLLTQAAAVMFNSYDYWGQGTRVTVSS
B3: Nb11 (VHH)
VHH: QVQLVETGGGLVQAGDSLRLACAHSGRTFSTYAMGWFRQAPGKEREFVAAISGSGGTTIYADSVTGRFTISRDNTKNTVYLQMNSLKPEDTAVYSCAASQYYMGSRSTENYNVWGQGTQVTVSS
B4: Nb1 (VHH)
VHH: QVQLVESGGGLVQAGDSLRLSCAASGRTFSNYAMGWFRQAPGKEREFVAAISGGGGTTYYSDSVKGRFTISRDNAKSTVYLQMNSLKPEDTAVYFCASSTYYMPSRAADTYTYWGQGTQVTVSS
notes: also called nanobody 1; source: E. coli BL21, purified (Ni2+ beads, SEC); not shown: His6, C-terminal, kept
B5: Nb2 (VHH)
VHH: B4 VHH with V2L, S7T
notes: also called nanobody 2; source: E. coli BL21, purified (Ni2+ beads, SEC); not shown: His6, C-terminal, kept
B6: Nb9 (VHH)
VHH: QLQLVESGGGVVQAGGSLRLSCAASGRTFSSYGMGWFRQAPGKEREFASAISGSGGSTYYADSVKGRFTISRDNAKNTVYLQMNSLKPEDTAVYYCARSRYYSGGRSLLEYDYWGQGTQVTVSS
notes: also called nanobody 9; source: E. coli BL21, purified (Ni2+ beads, SEC); not shown: His6, C-terminal, kept
B7: Nb7 (VHH)
VHH: QVQLVESGGGLVQAGGSLRLSCAASGLTFSAYNMGWFRQAPGKEREFVGAIWSSSFTYYLDSLKGRFTISRDNTKNTVYLQMNSLKPEDTAVYYCAAARRLLTQAGAVLTTSYEYWGQGTQVTVSS
B8: Nb8 (VHH)
VHH: QVQLVETGGGLVQAGGSLRLSCAASGRAFSSYGMGWFRQAPGKEREFVAAVSGSGATTIYADSVKGRFTISRDNAVNTVYLHMNDLKPDDTAVYYCAVGKYYSGSRQSHNYDYWGQGTQVTVSS
notes: also called nanobody 8; source: E. coli BL21, purified (Ni2+ beads, SEC); not shown: His6, C-terminal, kept
B9: Nb4 (VHH)
VHH: QVQLVESGGGVVQTGGSLRLSCAASGRTFSTYGMGWFRQAPGKEREFVAAISGSGGMTYYGDPVKGRFTISRDNAVNTVYLQMNNLKPEDTAVYICAVGAYYSGGSRAQNYEYWGQGTQVTVSS
notes: also called nanobody 4; source: E. coli BL21, purified (Ni2+ beads, SEC); not shown: His6, C-terminal, kept
B10: Nb5 (VHH)
VHH: B9 VHH with P88A, I95V
notes: also called nanobody 5; source: E. coli BL21, purified (Ni2+ beads, SEC); not shown: His6, C-terminal, kept

Columns and labels:
[1] = target: T1, zinc-transporting PIB-ATPase ZntA from Shigella sonnei (Shigella sonnei (UniProt Q3YW59, strain …, UniProt Q3YW59))
[2] = target: T1, zinc-transporting PIB-ATPase ZntA from …; assay: SEC; details: both partners purified

T1 sequence (Q3YW59 whole entry, one chain of several): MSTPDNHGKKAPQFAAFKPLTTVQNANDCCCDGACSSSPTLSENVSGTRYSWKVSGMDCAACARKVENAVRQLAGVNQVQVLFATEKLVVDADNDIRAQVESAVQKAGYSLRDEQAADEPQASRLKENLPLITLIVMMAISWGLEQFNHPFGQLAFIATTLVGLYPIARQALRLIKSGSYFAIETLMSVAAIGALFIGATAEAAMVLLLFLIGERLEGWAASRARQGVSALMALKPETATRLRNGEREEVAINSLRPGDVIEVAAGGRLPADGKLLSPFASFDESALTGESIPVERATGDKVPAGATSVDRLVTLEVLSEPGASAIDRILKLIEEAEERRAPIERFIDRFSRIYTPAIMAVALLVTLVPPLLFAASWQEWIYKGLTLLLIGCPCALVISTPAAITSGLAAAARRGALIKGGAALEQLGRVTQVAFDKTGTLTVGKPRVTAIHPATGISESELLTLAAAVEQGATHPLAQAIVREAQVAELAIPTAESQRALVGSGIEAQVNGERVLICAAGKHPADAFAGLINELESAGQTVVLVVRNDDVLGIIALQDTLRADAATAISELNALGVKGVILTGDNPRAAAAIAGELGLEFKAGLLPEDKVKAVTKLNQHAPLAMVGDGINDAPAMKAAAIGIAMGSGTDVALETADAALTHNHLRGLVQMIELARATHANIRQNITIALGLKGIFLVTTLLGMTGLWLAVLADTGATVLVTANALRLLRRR

Binder	binding result [1]	binding result [2]
B1	binds	
B2	binds	
B3	binds	
B4		binds
B5		binds
B6		binds
B7	binds	
B8		binds
B9		binds
B10		binds

Reference: article PMC6698960, “Isolation and Characterization of Nanobodies against a Zinc-Transporting P-Type ATPase” (Antibodies, 2018)
